Target: the molecule itself
Assay: SEC-MALS; SEC-MALLS with refractive index and UV280 monitoring; two coupled Superdex 200 5/15 columns; 10 mM MES pH 6, 150 mM NaCl, 0.03% β-DDM; 80 µg IMAC-purified STNhaA; protein conjugate analysis separating protein and detergent mass

B1: Na+/H+ antiporter NhaA from Salmonella enterica serovar Typhimurium LT2, recombinant with carboxy-terminal hexahistidine tag (natural protein)
chain: NLGILKHLHRFFSSDASGGIILIIAAALAMLMANMGATSGWYHDFLETPVQLRVGALEINKNMLLWINDALMAVFFLLIGLEVKRELMQGSLASLRQAAFPVIAAIGGMIVPALLYLAFNYSDPVTREGWAIPAATDIAFALGVLALLGSRVPLALKIFLMALAIIDDLGAIVIIALFYTSDLSIVSLGVAAFAIAVLALLNLCGVRRTGVYILVGAVLWTAVLKSGVHATLAGVIVGFFIPLKEKHGRSPAKRLEHVLHPWVAYLILPLFAFANAGVSLQGVTIDGLTSMLPLGIIAGLLIGKPLGISLFCWLALRFKLAHLPQGTTYQQIMAVGILCGIGFTMSIFIASLAFGNVDPELINWAKLGILIGSLLSAVVGYSWLRARLNAPA
notes: five residues that the expression construct adds at the amino-terminus; Na+/H+ antiporter NhaA, S. Typhimurium LT2, wild type; coding region (nhaA, STM0039) amplified from genomic DNA; calculated mass of the construct 44.01 kDa; Integral membrane protein, held in β-DDM detergent; also called STNhaA; STNhaA-His6; source: E. coli NM554 (pTTQ18A1-STNhaA-His6), membranes solubilized in β-DDM, …
stoichiometry N: 2

From paper PMC4092016, “Molecular Characterization of the Na^+/H^+-Antiporter NhaA from Salmonella Typhimurium” (PLoS ONE, 2014)
